Measurements published in patent US20090042248.

T1: Human C2, P06681
T1 chain: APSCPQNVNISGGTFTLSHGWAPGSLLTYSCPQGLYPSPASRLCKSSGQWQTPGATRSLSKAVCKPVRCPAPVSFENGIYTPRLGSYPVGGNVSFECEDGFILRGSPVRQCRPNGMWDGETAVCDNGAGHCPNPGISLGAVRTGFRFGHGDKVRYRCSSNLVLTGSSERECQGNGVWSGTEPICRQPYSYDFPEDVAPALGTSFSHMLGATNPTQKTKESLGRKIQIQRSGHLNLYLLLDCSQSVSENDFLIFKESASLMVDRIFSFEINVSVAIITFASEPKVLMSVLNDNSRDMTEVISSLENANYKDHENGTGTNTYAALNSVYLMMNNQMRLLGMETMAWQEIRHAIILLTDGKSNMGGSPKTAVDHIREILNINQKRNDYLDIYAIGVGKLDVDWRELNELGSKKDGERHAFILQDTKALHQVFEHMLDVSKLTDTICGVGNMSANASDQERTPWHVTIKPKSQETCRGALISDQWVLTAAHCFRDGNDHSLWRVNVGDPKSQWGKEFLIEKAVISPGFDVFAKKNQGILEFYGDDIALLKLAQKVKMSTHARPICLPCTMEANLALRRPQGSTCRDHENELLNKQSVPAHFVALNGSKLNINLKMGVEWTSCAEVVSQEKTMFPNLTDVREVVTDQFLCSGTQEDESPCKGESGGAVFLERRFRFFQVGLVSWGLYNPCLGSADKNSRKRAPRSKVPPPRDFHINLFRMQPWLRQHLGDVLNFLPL

T2: alpha-2-macroglobulin, P01023
T2 chain: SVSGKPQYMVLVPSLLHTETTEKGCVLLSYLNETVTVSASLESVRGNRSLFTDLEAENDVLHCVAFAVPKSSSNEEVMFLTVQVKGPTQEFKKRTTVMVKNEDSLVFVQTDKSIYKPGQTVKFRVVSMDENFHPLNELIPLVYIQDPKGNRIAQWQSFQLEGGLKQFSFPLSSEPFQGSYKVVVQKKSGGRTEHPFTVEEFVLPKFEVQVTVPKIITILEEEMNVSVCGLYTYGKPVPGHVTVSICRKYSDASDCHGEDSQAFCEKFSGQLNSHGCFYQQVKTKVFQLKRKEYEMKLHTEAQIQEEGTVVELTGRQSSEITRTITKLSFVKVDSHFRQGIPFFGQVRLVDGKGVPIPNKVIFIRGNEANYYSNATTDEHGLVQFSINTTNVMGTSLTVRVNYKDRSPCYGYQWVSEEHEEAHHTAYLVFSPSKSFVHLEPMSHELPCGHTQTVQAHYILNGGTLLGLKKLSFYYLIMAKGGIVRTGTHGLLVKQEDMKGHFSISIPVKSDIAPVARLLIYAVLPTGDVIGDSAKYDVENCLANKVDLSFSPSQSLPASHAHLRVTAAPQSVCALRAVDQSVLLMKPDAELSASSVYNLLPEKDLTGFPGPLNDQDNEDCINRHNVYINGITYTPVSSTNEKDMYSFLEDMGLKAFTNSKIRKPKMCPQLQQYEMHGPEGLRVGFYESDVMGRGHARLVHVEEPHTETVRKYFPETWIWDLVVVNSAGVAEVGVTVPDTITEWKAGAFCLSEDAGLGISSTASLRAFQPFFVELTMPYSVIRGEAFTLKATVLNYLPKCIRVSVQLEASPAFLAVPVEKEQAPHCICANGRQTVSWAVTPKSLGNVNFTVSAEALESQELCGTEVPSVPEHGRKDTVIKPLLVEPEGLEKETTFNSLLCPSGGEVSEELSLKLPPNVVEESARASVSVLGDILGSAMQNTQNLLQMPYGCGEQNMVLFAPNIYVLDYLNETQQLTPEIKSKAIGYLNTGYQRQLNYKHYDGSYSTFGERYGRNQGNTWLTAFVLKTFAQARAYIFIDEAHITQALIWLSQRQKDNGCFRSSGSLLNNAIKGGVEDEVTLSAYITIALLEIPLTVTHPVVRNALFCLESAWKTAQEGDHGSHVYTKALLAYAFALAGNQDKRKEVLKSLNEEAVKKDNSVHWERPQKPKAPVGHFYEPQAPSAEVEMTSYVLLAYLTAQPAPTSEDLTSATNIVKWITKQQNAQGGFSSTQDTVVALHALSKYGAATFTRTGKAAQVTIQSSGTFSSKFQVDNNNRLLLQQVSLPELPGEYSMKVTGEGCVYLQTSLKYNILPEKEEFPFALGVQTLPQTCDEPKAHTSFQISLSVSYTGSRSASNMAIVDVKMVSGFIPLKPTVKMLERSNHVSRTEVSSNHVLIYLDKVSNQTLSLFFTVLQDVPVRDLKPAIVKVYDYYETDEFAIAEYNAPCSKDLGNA

T3: C1r CCP2-SP S654A, P00736
T3 chain: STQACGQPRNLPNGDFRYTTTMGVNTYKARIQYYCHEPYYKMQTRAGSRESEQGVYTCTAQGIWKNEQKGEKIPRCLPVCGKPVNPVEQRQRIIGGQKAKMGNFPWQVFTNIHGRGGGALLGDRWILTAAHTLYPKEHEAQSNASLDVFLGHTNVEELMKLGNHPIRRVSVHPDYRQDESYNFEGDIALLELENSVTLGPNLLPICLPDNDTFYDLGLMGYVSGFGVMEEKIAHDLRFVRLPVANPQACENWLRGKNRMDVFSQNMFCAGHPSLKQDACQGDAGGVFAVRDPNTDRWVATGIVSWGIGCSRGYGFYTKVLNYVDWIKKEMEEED

T4: C1r SP S654A, P00736
T4 chain: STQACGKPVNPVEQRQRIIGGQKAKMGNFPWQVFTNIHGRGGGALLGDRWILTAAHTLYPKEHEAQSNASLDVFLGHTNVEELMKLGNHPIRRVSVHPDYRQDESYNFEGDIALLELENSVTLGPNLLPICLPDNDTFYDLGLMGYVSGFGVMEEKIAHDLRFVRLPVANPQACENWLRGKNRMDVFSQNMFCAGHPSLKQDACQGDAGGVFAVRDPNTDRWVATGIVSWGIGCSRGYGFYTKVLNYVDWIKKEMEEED

T5: Proenzyme C1s, P09871
T5 chain: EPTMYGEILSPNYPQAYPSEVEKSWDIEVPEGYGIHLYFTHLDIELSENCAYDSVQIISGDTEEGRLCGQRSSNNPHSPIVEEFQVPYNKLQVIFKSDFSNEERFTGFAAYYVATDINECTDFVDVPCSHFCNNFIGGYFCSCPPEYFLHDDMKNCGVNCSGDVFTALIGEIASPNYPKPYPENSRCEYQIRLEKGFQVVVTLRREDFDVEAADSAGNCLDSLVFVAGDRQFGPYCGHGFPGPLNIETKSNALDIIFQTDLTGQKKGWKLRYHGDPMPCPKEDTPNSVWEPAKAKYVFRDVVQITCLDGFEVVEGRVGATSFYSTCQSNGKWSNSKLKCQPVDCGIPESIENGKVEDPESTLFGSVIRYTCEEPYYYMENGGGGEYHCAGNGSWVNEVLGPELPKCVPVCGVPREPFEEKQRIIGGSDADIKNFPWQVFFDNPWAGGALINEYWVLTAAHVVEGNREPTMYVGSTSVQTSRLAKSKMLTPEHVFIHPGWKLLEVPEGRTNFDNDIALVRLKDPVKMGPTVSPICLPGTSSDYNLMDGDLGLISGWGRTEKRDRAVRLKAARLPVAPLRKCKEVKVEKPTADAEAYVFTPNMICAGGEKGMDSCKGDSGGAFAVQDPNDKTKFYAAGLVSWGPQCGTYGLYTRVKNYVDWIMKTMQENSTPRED

T6: C1r CCP1-CCP2-SP S654A, P00736
T6 chain: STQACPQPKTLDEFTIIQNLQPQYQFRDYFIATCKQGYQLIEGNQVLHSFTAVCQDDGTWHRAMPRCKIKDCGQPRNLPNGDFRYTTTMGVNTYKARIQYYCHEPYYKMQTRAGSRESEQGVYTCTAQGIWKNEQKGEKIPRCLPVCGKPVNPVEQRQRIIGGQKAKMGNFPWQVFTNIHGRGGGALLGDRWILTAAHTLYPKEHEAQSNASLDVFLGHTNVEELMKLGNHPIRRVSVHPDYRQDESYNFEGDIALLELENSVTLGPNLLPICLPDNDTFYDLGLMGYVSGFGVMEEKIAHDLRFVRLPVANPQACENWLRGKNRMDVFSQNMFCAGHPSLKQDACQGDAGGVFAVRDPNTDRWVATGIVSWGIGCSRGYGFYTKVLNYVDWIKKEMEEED

B1: MASP-2 CCP2-SP fragment (protein)
chain 1: ASMTIVDCGPPDDLPSGRVEYITGPGVTTYKAVIQYSCEETFYTMKVNDGKYVCEADGFWTSSKGEKSLPVCEPVCGLSARTTGGR
chain 2: IYGGQKAKPGDFPWQVLILGGTTAAGALLYDNWVLTAAHAVYEQKHDASALDIRMGTLKRLSPHYTQAWSEAVFIHEGYTHDAGFDNDIALIKLNNKVVINSNITPICLPRKEAESFMRTDDIGTASGWGLTQRGFLARNLMYVDIPIVDHQKCTAAYEKPPYPRGSVTANMLCAGLESGGKDSCRGDSGGALVFLDSETERWFVGGIVSWGSMNCGEAGQYGVYTKVINYIPWIENIISDF
B2: MASP-2 SP fragment (protein)
chain 1: ASMTPVCGLSARTTGGR
chain 2: B1 chain 2
B3: C1r CCP1-CCP2-SP fragment (wild-type) (protein)
chain 1: STQACPQPKTLDEFTIIQNLQPQYQFRDYFIATCKQGYQLIEGNQVLHSFTAVCQDDGTWHRAMPRCKIKDCGQPRNLPNGDFRYTTTMGVNTYKARIQYYCHEPYYKMQTRAGSRESEQGVYTCTAQGIWKNEQKGEKIPRCLPVCGKPVNPVEQRQR
chain 2: IIGGQKAKMGNFPWQVFTNIHGRGGGALLGDRWILTAAHTLYPKEHEAQSNASLDVFLGHTNVEELMKLGNHPIRRVSVHPDYRQDESYNFEGDIALLELENSVTLGPNLLPICLPDNDTFYDLGLMGYVSGFGVMEEKIAHDLRFVRLPVANPQACENWLRGKNRMDVFSQNMFCAGHPSLKQDACQGDSGGVFAVRDPNTDRWVATGIVSWGIGCSRGYGFYTKVLNYVDWIKKEMEEED
B4: C1r CCP2-SP fragment (wild-type) (protein)
chain 1: STQACGQPRNLPNGDFRYTTTMGVNTYKARIQYYCHEPYYKMQTRAGSRESEQGVYTCTAQGIWKNEQKGEKIPRCLPVCGKPVNPVEQRQR
chain 2: B3 chain 2
B5: C1r SP fragment (wild-type) (protein)
chain 1: STQACGKPVNPVEQRQR
chain 2: B3 chain 2

Columns and labels:
Human C2, P06681 = molecular target: T1, Human C2, P06681
[1] = molecular target: T2, alpha-2-macroglobulin, P01023
[2] = molecular target: T3, C1r CCP2-SP S654A, P00736
C1r SP S654A, P00736 = molecular target: T4, C1r SP S654A, P00736
Proenzyme C1s, P09871 = molecular target: T5, Proenzyme C1s, P09871
[3] = molecular target: 'live' C3 (C3 with an intact thiol ester bond), P01024
Chain of 'live' C3 (C3 with an intact thiol ester bond), P01024 (P01024 whole entry, looked up): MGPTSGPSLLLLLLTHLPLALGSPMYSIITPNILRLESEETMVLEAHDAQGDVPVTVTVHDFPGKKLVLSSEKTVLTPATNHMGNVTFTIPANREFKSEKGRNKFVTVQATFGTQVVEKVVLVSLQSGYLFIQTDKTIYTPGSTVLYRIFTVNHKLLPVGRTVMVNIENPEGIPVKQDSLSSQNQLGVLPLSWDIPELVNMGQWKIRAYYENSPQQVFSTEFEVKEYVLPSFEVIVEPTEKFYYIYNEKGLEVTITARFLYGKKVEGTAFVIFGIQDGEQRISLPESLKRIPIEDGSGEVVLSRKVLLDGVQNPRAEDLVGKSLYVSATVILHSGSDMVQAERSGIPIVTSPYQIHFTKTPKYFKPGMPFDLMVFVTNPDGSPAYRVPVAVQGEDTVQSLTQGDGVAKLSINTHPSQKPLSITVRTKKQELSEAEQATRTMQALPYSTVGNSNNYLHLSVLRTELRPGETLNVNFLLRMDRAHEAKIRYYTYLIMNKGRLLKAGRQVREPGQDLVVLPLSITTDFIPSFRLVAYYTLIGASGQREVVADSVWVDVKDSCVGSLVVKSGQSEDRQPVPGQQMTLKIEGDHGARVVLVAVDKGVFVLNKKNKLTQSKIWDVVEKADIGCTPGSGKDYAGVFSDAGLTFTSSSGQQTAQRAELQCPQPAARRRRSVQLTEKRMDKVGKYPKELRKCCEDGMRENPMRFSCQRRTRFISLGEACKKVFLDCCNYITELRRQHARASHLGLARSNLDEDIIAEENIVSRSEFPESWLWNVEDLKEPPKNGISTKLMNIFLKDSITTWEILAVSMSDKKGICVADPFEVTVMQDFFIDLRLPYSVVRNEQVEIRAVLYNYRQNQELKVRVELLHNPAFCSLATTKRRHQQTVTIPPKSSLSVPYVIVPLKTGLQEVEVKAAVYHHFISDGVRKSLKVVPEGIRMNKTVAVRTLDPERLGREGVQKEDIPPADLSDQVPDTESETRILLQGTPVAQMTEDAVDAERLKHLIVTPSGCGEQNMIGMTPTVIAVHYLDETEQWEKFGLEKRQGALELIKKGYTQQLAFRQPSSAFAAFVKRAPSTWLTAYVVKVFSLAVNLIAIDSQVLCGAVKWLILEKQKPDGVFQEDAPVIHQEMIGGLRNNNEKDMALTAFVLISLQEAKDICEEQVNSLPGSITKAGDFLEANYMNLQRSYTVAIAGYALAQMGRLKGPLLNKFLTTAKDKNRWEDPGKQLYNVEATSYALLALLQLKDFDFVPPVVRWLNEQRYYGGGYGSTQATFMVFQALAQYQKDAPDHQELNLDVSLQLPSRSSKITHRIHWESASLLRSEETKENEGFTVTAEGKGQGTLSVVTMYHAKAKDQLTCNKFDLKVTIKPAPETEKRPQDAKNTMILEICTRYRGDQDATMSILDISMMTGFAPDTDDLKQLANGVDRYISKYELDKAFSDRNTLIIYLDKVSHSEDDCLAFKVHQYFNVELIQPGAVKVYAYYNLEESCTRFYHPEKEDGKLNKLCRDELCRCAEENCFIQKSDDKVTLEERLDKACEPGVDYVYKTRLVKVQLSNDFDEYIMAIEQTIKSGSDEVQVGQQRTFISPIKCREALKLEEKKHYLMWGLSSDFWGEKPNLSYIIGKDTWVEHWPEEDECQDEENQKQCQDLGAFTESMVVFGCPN

[4] = molecular target: T6, C1r CCP1-CCP2-SP S654A, P00736

Chain of Human C4, P0C0L4 (P0C0L4 whole entry, looked up, the tested form may be a part): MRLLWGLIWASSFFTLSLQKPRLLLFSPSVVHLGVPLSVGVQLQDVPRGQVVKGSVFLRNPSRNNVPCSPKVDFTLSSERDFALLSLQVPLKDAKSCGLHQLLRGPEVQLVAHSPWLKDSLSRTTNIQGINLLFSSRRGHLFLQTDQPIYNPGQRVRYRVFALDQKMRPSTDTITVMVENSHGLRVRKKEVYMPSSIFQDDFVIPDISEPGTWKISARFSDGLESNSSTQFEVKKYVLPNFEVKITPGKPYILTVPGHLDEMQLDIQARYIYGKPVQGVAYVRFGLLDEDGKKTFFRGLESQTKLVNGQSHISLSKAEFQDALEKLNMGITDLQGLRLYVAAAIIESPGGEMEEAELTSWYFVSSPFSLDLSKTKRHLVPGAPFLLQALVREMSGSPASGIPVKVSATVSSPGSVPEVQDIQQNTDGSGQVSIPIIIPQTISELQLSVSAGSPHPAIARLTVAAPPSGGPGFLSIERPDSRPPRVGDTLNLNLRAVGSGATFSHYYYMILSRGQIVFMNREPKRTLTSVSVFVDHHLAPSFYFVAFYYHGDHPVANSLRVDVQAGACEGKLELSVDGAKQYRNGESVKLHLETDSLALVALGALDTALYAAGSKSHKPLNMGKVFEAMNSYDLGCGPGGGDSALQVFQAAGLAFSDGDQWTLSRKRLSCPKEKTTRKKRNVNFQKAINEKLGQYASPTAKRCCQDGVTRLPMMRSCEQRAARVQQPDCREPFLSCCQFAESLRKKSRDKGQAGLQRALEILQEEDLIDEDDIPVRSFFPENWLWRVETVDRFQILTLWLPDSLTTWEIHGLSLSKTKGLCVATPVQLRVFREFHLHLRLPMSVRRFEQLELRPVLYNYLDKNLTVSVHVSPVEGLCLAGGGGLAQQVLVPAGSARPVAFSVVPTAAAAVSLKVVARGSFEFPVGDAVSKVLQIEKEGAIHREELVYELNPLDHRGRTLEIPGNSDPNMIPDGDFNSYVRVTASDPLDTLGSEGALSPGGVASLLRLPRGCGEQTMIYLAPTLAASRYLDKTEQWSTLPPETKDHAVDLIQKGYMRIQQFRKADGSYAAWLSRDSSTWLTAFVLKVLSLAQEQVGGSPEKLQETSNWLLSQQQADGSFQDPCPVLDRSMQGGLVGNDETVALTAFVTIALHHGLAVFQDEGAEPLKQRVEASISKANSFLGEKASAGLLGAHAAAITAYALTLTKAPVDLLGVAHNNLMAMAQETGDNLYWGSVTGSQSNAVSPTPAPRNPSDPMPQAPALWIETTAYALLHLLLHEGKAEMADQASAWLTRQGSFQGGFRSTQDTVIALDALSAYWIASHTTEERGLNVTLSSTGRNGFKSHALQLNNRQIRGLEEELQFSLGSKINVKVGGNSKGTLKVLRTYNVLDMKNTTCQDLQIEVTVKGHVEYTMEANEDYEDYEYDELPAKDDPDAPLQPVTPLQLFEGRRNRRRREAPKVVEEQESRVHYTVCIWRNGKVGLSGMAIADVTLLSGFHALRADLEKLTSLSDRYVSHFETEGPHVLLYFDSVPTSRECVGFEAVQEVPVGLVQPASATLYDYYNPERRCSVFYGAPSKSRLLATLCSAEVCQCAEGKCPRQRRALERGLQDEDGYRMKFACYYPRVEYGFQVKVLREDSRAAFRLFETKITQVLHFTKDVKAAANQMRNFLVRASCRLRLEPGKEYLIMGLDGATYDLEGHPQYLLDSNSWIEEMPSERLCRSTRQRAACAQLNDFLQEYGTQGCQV
Chain of 'dead' C3(NH3), P01024 (P01024 whole entry, looked up): as the sequence (P01024 whole entry, looked up) above

Protein	KM, C2 cleavage (Human C2, P06681)	kcat, C2 cleavage (Human C2, P06681)	kcat/KM, C2 cleavage (Human C2, P06681)	KM, C4 cleavage (Human C4, P0C0L4)	fold increase in the kcat/KM value of C4 cleavage against the SP domain alone (Human C4, P0C0L4)	kcat, C4 cleavage (Human C4, P0C0L4)	kcat/KM, C4 cleavage (Human C4, P0C0L4)	molar excess needed to abolish cleavage of complement substrates [1]	kcat/KM, cleavage of S654A zymogen [2]	kcat/KM, cleavage of S654A zymogen (C1r SP S654A, P00736)	cleavage of 'dead' C3 (control) ('dead' C3(NH3), P01024)	kcat/KM, C1s cleavage (Proenzyme C1s, P09871)	cleavage of 'live' C3 (control) [3]	kcat/KM, cleavage of S654A zymogen [4]
B1	2.7 µM	3 s⁻¹	1.3e+06 M⁻¹ s⁻¹	0.4 µM	a 44-fold increase in the kcat/KM value	2 s⁻¹	5.7e+06 M⁻¹ s⁻¹	or with a large molar excess (40 fold) of alpha-2-macroglobulin	–	–	–	–	–	–
B2	3.2 µM	3.9 s⁻¹	2.5e+06 M⁻¹ s⁻¹	2 µM	–	0.2 s⁻¹	130000 M⁻¹ s⁻¹	or with a large molar excess (40 fold) of alpha-2-macroglobulin	–	–	–	–	–	–
B3	–	–	–	–	–	–	–	–	15900 s^-1M^-1	45000 s^-1M^-1	we observed no cleavages of either 'live' or 'dead' C3	58000 s^-1M^-1	we observed no cleavages of either 'live' or 'dead' C3	6200 s^-1M^-1
B4	–	–	–	–	–	–	–	–	130000 s^-1M^-1	68000 s^-1M^-1	–	208000 s^-1M^-1	–	74000 s^-1M^-1
B5	–	–	–	–	–	–	–	–	75000 s^-1M^-1	71000 s^-1M^-1	–	28000 s^-1M^-1	–	72000 s^-1M^-1
